Patent publication US20060166284A1 (Bayer, published 2006)
Values joined by “and” are separate entries in the source; they are usually repeats but may differ in a detail not shown here. Equal entries are not always repeated.

B1: single chain anti-TF antibody scFv(TF)3e10 (scFv)
scFv: EMAQVNLRESGGTLVQPGGSLRLSCAASGFSFTDAWMSWVRQAPGKELEWVSSISGSGGSTYYAGSVKGRFTISRDNSKNTLYLQMNSLRAEDTAVYYCARVLSLTDYYWYGMDVWGQGTLVTVSAGGGGSGAPNFMLTQPHSVSASPGKTVTISCTRSSGSVASYYVQWYQQRPGSSPTTVIYEDNHRPSGVPDRFSGSIDTSSNSASLTISGLKTEDEADYYCQSYDSNNLVVFGGGTKLTVLGAAAGAPVPYPDPLEPRAA
notes: Monomer and dimer forms were separated by gel filtration
B2: recombinant human soluble tissue factor (receptor, UniProt P13726 33-251, looked up)
chain: SGTTNTVAAYNLTWKSTNFKTILEWEPKPVNQVYTVQISTKSGDWKSKCFYTTDTECDLTDEIVKDVKQTYLARVFSYPAGNVESTGSAGEPLYENSPEFTPYLETNLGQPTIQSFEQVGTKVNVTVEDERTLVRRNNTFLSLRDVFGKDLIYTLYYWKSSSSGKKTAKTNTNEFLIDVDKGENYCFSVQAVIPSRTVNRKSTDSPVECMGQEKGEFRE
notes: extracellular domain; also called sTF; soluble TF

Assays:
[1] = biological target: FVIIa/TF complex on a phospholipid surface (recombinant human TF vesicles with human FVIIa) (UniProt P13726)
[2] = biological target: B2; test: microcalorimetry (isothermal titration calorimetry), model OneSites, CHO-expressed scFv(TF)3e10 titrated into sTF; no unit printed in the fit box
Description: (§1) This assay is performed using a MicroCal VP-ITC instrument. […] Data analysis is performed using MicroCal Origin software. The data is fit to a single binding site.

[3] = biological target: T1, FVIIa/TF complex preformed from sTF and FVIIai (human, UniProt P13726 33-251; P08709 61-466, limits assumed, active site inactivated by a chloromethylketone peptide, PPACK (FVIIai)); test: microcalorimetry (ITC); scFv expressed in mammalian (CHO) cells; complex of sTF with FVIIai; microcalorimetry; TF/FVIIa complex; mammalian cell expressed scFv
T1 construct: extracellular domain;mature; Complex used in the microcalorimetry assay; It was made with a 2.3 fold molar excess of FVIIai over sTF; also called TF/FVIIa complex; sTF/FVIIa complex
Description: as §1

[4] = biological target: T1, FVIIa/TF complex preformed from sTF and …; test: microcalorimetry (ITC); scFv expressed in mammalian (CHO) cells
Description: as §1

[5] = biological target: FVIIa/TF complex on a phospholipid surface (recombinant human TF vesicles with human FVIIa) (human, UniProt P13726 33-295; P08709 61-466); test: cell-based or functional assay
[6] = biological target: T2, sTF/FVIIa complex (soluble tissue factor with active human FVIIa) (human, UniProt P13726 33-251; P08709 61-466); test: sTF/FVIIa peptide hydrolysis assay (3 nM sTF, 2 nM FVIIa); scFv titrated, 4-parameter fit of the rise in rate; bacterially expressed scFv; peptide hydrolysis assay with 3 nM sTF and 2 nM FVIIa present
T2 construct: extracellular domain;mature; The complex forms in the sTF/FVIIa peptide hydrolysis assay (3 nM sTF, 2 nM FVIIa); also called FVIIa/TF complex; VIIa/TF complex

[7] = biological target: B2; test: microcalorimetry (ITC); scFv expressed in mammalian (CHO) cells; free sTF; microcalorimetry; free sTF; mammalian cell expressed scFv
Description: as §1

[8] = biological target: T1, FVIIa/TF complex preformed from sTF and …; test: microcalorimetry (isothermal titration calorimetry), model OneSites, CHO-expressed scFv(TF)3e10 titrated into the preformed sTF/FVIIai complex; no unit printed in the fit box
Description: as §1

[9] = biological target: T1, FVIIa/TF complex preformed from sTF and …; test: microcalorimetry (isothermal titration calorimetry), model OneSites, CHO-expressed scFv(TF)3e10 titrated into the preformed sTF/FVIIai complex
Description: as §1

human factor VIIa [10] = biological target: T3, human factor VIIa (human, UniProt P08709 61-466); test: sTF/FVIIa peptide hydrolysis assay (S2266), 2 nM FVIIa, no sTF
T3 construct: mature; also called FVIIa
T3 sequence (looked up): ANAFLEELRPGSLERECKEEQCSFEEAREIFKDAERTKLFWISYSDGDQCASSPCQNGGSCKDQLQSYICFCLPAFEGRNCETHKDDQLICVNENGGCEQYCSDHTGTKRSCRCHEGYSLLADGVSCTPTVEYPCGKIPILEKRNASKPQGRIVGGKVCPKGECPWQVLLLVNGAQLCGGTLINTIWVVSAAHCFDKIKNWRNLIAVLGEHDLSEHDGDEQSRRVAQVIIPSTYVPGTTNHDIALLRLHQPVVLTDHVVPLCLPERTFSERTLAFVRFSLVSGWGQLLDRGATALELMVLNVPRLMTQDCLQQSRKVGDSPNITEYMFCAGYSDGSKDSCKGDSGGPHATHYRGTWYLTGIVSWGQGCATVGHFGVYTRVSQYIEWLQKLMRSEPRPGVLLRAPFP

[11] = biological target: B2; test: BIAcore; BIAcore; free sTF, no FVIIa
human factor VIIa [12] = biological target: T3, human factor VIIa; test: sTF/FVIIa peptide hydrolysis assay (S2266), 2 nM FVIIa, sTF titrated, apparent KD from a 4-parameter fit; no antibody

## human factor X
[1]
  Km of FX for the VIIa/TF complex (FX activation assay): between 0.061 and 0.099 µM

## B1
[2]
  ΔH: -21800
[3]
  Kd: 33 nM
[4]
  fold higher affinity for the TF/FVIIa complex as compared to free sTF: ~20 fold
[5]
  IC50 for inhibition in the FX activation assay: 0.44 nM
[6]
  Kd: 65 nM
[7]
  Kd: 600 nM
[8]
  ΔH: -28600
  ΔS: -60
[9]
  N: 1.14
Human factor VIIa [10]
  binding result: no binding (tested: 800 nM)
[11]
  Kd: 470 nM

## B2
Human factor VIIa [12]
  Kd: 13 nM
